Test results taken from US20160297892A1 (Novo Nordisk, published 2016).
Residue numbers refer to the chain shown, from its start.

T1: EGF domain 1 and 2 of recombinant human Protein S (human, UniProt P07225 114-200, limits assumed)
T1 construct: domain: EGF domain 1 and 2; also called hEGF1-2
T1 sequence (looked up): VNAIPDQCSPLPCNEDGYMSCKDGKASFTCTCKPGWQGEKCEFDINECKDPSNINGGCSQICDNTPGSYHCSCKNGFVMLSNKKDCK

T2: Gla-domain deleted recombinant human Protein S (human, UniProt P07225 114-676)
T2 construct: also called hPS-dGla; desGla human Protein S
T2 sequence: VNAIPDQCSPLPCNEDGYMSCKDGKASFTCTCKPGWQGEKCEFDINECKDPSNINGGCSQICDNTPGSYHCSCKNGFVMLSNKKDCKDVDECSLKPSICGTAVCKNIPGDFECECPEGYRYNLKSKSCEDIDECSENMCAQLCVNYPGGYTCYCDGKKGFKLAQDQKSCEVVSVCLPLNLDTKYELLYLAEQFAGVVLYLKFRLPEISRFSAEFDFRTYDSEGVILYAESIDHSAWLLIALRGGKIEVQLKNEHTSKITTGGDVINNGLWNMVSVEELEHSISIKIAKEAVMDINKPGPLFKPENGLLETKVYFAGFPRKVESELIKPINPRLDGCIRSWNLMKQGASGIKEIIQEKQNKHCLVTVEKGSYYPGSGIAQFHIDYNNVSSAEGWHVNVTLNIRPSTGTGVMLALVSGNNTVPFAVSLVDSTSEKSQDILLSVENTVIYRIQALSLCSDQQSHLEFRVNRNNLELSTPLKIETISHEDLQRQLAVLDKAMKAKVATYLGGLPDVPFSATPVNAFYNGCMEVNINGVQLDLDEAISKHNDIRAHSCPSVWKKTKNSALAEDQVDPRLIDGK

T3: EGF1-4 domains of human Protein S with C-terminal HPC4 tag (human, UniProt P07225 114-286, partial hydroxylation of Asn or Asp in the EGF domains (detected by MS))
T3 construct: also called hEGF1-4; human Protein S EGF1-4
T3 sequence: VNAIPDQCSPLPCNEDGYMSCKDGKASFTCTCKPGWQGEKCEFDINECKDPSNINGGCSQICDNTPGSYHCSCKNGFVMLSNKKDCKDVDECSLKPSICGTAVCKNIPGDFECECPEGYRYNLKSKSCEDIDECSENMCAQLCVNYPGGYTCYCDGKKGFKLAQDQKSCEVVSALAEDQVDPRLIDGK

T4: EGF domain 3 and 4 of recombinant human Protein S (human, UniProt P07225 201-286, limits assumed)
T4 construct: domain: EGF domain 3 and 4; also called hEGF3-4
T4 sequence (looked up): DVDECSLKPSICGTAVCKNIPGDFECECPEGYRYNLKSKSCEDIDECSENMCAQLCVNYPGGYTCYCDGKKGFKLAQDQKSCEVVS

T5: C4b-Binding Protein (UniProt P04003 49-597; P20851 18-252)
T5 construct: Bought protein; also called C4BP; C4b-BP
T5 sequence (looked up) 1: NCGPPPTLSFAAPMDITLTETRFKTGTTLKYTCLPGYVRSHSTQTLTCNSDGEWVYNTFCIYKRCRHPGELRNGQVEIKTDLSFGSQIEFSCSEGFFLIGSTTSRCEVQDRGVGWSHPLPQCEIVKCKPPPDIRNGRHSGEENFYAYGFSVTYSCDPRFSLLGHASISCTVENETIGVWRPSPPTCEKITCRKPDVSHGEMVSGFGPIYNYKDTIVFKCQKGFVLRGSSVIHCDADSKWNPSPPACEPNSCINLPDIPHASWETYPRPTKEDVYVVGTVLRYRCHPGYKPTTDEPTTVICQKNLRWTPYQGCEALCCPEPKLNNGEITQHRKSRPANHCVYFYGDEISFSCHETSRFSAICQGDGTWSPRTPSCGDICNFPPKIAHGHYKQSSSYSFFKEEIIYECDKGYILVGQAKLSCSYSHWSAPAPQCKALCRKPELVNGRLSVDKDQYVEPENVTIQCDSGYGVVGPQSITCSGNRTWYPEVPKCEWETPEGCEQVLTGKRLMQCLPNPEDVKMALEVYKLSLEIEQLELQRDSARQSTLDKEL
T5 sequence (looked up) 2: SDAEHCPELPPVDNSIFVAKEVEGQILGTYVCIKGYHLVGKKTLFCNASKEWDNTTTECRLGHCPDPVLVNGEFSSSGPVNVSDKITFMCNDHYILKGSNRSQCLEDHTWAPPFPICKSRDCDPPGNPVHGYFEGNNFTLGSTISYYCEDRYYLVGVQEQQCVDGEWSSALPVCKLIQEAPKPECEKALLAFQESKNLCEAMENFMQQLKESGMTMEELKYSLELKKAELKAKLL

B1: M-hProtS-6F170A2 monoclonal antibody (antibody, V domains shown)
VH: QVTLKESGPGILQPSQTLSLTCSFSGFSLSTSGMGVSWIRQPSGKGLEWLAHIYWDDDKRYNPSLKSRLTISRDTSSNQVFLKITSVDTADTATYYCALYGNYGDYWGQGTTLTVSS
VL: QIVLTQSPAIMSASPGEKVTMTCSASSSVSYMYWYQQKPGSSPRILIYDTSNLASGVPVRFSGSGSGTSYSLTISRMEAEDAATYYCQQWSSYPLTFGAGTKLELKR
notes: Mouse IgG1, kappa
B2: 0322-0000-0114 (antibody, V domains shown)
VH: EVKLEESGGGLVQPGGSMKLSCAASGFTFSDAWMDWVRQSPEKGLEWVAEIRSKANNHATYYAESVKGRFTISRDDSKSGVYLQMNSLRPEDTGIYYCTLTTAFLFDYWGQGTTLTVSS
VL: QIALTQSPAIMSASPGEKVTMTCSVSSSVSYMHWYQQKPGSSPRLWIYDTSNLVSGVPGRFSGSGSGTSYSLTLSSMEAEDAATYYCQQYSGYLYTFGGGTKLEIKR
notes: also called murine-human chimeric antibody of 2F4A1
B3: M-hProtS-2F4A1 monoclonal antibody (antibody, V domains shown)
VH: B2 VH
VL: B2 VL
notes: Mouse IgG1, kappa
B4: 0322-0000-1139 (Fab, V domains shown)
VH: QVQLQQPGAELVRPGASVKLSCKASGYTFTSYWINWVKQRPEQGLEWIGRIDPYDSETHYNQKFKDKAILTVDKSSSTAYMQLSSLTSEDSAVYYCARWGGSGYAMDYWGQGTSVTVSS
VL: QIVLSQSPAILSASPGEKVTMTCRASSSVSYMYWYQQKPGSSPKPWIYATSNLASGVPARFSGSGSGTSYSLTISRVEAEDAATYYCQQWSSIPPTFGGGTKLEIKR
notes: also called Fab 1139
B5: M-hProtS-2F82A1 monoclonal antibody (antibody, V domains shown)
VH: B4 VH with A9T, I34M, K38Q, S56T, K65E, G100A, G103S
VL: QIVLTQSPALMSASPGERVTMTCSASSSVSYMYWYQQKPRSSPKPWIYSTSNLASGVPARFSGSGSGTSYSLTISSMEAEDAATYYCQQWSSNPYTFGGGTKLEIKR
notes: Mouse IgG1, kappa; also called mAb 0017
B6: M-hProtS-3F2A1 monoclonal antibody (antibody, V domains shown)
VH: EVQLQESGPSLVKPSQTLSLTCSVTGDSITSGYWNWIRKFPGNKLEYMGYISFSGSTYYNPSLKSRISITRDTSKNQYYLQLNSVTTEDTATYYCAREFAYWGQGTLVTVSA
VL: DIVLTQSPATLSVTPGDSVSLSCRASQSISNNLHWYQQKSHESPRLLIKFVSQSISGIPSRFSGSGSGTDFTLSINSVETEDFGMYFCQQSNSWPWTFGGGTKLEIKR
notes: Mouse IgG1, kappa
B7: human Protein S (plasma derived) (other)
chain: ANSLLEETKQGNLERECIEELCNKEEAREVFENDPETDYFYPKYLVCLRSFQTGLFTAARQSTNAYPDLRSCVNAIPDQCSPLPCNEDGYMSCKDGKASFTCTCKPGWQGEKCEFDINECKDPSNINGGCSQICDNTPGSYHCSCKNGFVMLSNKKDCKDVDECSLKPSICGTAVCKNIPGDFECECPEGYRYNLKSKSCEDIDECSENMCAQLCVNYPGGYTCYCDGKKGFKLAQDQKSCEVVSVCLPLNLDTKYELLYLAEQFAGVVLYLKFRLPEISRFSAEFDFRTYDSEGVILYAESIDHSAWLLIALRGGKIEVQLKNEHTSKITTGGDVINNGLWNMVSVEELEHSISIKIAKEAVMDINKPGPLFKPENGLLETKVYFAGFPRKVESELIKPINPRLDGCIRSWNLMKQGASGIKEIIQEKQNKHCLVTVEKGSYYPGSGIAQFHIDYNNVSSAEGWHVNVTLNIRPSTGTGVMLALVSGNNTVPFAVSLVDSTSEKSQDILLSVENTVIYRIQALSLCSDQQSHLEFRVNRNNLELSTPLKIETISHEDLQRQLAVLDKAMKAKVATYLGGLPDVPFSATPVNAFYNGCMEVNINGVQLDLDEAISKHNDIRAHSCPSVWKKTKNS
notes: Bought plasma-derived human Protein S (Haematologic Technologies or Enzyme Research Laboratories); also called Plasma PS; free Protein S
B8: M-hProtS-6F138A3 monoclonal antibody (antibody, V domains shown)
VH: QVHLKESGPGLVAPSQNLSITCTVSGFSLTGYGVSWVRQPPGKGLEWLGMIWGDGTTDYNSTLKSRLSISKDNSKSQVFLKMNSLQIDDTARYYCARDPGAMDYWGQGTSVTVSS
VL: QIVLTQSPAIMSASPGEKVTITCSATSSVTYMHWFQQKPGTSPKLWIFSTSNLASGVPPRFSGSGSGTSYSLTISRMEAEDAATYYCQQRSSYPPTFGGGTKLEIKR
notes: Mouse IgG1, kappa; also called 6F138A1/A3

Experiments:
[1] = target: T1, EGF domain 1 and 2 of recombinant human …; experiment: ELISA, calcium-free TBS;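 further: binding of mouse antibodies detected by ELISA with an HRP-conjugated goat anti-mouse IgG secondary and TMB substrate development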
Method: (§1) After incubation and washing a HRP-labelled goat-anti-mouse IgG secondary antibody (Jackson) was added and the ELISA was developed after incubation and wash by addition of 3,3′,5,5′-Tetramethylbenzidine.

[2] = target: T2, Gla-domain deleted recombinant human …; experiment: ELISA, recombinant antibody
[3] = target: T3, EGF1-4 domains of human Protein S with …; experiment: ELISA, recombinant antibody
[4] = target: B7; experiment: ELISA, recombinant antibody
[5] = target: T3, EGF1-4 domains of human Protein S with …; experiment: HX-MS, 4 uM EGF1-4 with 2.4 uM mAb
Method: The HX experiments were performed on a nanoACQUITY UPLC System with HDX Technology (Waters Inc.) coupled to a Synapt G2 mass spectrometer (Waters Inc.). The Waters HDX system contained a Leap robot (H/D-x PAL; Waters Inc.) operated by the LeapShell software (Leap Technologies Inc/Waters Inc.), which performed initiation of the deuterium exchange reaction, reaction time control, quench reaction, injection onto the UPLC system and digestion time control. The Leap robot was equipped with two temperature controlled stacks maintained at 20° C. for buffer storage and HX reactions and maintained at 2° C. for storage of protein and quench solution, respectively. The Waters HDX system furthermore contained a temperature controlled chamber holding the pre- and analytical columns, and the LC tubing and switching valves at 0.5° C. A separately temperature controlled chamber holds the pepsin column at 25° C. […] The resulting peptides were trapped and desalted on a VanGuard pre-column BEH C18 1.7 μm (2.1×5 mm (Waters Inc.)). Subsequently, the valves were switched to place the pre-column inline with the analytical column, UPLC-BEH C18 1.7 μm (1×100 mm (Waters Inc.)), and the peptides separated using a 9 min gradient of 10-50% B delivered at 40 μl/min from the nanoAQUITY UPLC system (Waters Inc.). The mobile phases consisted of A: 0.1% formic acid and B: 0.1% formic acid in CH₃CN. […]

[6] = target: B7; experiment: SPR (Biacore 3000), Protein S captured on phosphatidylserine vesicles on L1 chip, mAb 250 nM
[7] = target: T2, Gla-domain deleted recombinant human …; experiment: ELISA, calcium-free TBS;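 further: binding of mouse antibodies detected by ELISA with an HRP-conjugated goat anti-mouse IgG secondary and TMB substrate development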
Method: as §1

[8] = target: T3, EGF1-4 domains of human Protein S with …; experiment: ELISA, calcium-free TBS;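 further: binding of mouse antibodies detected by ELISA with an HRP-conjugated goat anti-mouse IgG secondary and TMB substrate development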
Method: as §1

[9] = target: B7; experiment: ELISA, calcium-free TBS;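 further: binding of mouse antibodies detected by ELISA with an HRP-conjugated goat anti-mouse IgG secondary and TMB substrate development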
Method: as §1

[10] = target: T4, EGF domain 3 and 4 of recombinant human …; experiment: ELISA, recombinant antibody
[11] = target: B7; experiment: SPR (Biacore T200), Fab on Protein S captured on C4BP
Method: (§2) In brief, a polyclonal anti-C4BP antibody targeting the alpha chain (ab83755 from abcam) was immobilized on a CM5 Biacore sensor chip by standard amine coupling chemistry. […] The experiment was conducted in 10 mM Hepes, pH 7.4; 150 mM NaCl; 10 M CaCl₂ supplemented with 0.005% Tween20 and the chip was regenerated with glycine-HCl pH 1.7.

C4b-Binding Protein = target: T5, C4b-Binding Protein; experiment: SPR (Biacore T200), C4BP captured by immobilized polyclonal anti-C4BP alpha chain antibody
Method: as §2

[12] = target: T4, EGF domain 3 and 4 of recombinant human …; experiment: ELISA, calcium-free TBS
Method: as §1

Row | binding result [7] | binding result [8] | binding result [9] | binding result [10] | other results | Binder
1 | – | – | – | – | binding result [1]: no binding; binding result [2]: binds; binding result [3]: binds; binding result [4]: binds | B1
2 | – | – | – | – | binding result [5]: binds; binding result [6]: binds | B2
3 | binds | binds | binds | no binding | – | B3
4 | – | – | – | – | Kd [11]: 10 nM | B4
5 | binds | binds | binds | no binding | – | B5
6 | binds | binds | binds | no binding | – | B6
7 | – | – | – | – | Kd (C4b-Binding Protein): 2 nM | B7
8 | – | – | – | – | binding result [12]: no binding; binding result [2]: binds; binding result [3]: binds; binding result [4]: binds | B8
